Reference: publication PMC8693863

Target: Myomaker (MYMK) (mouse (endogenous in primary myoblasts)) (UniProt Q9D1N4)
Assay: proximity ligation; Duolink PLA on primary mouse myoblasts fixed with 4% PFA, 24 h after DMSO (Ctrl) or ERKi; antibody pairs anti-TMEM8C + anti-CaMKII, or anti-CaMKII + anti-Rac1; mean fluorescent intensity normalized to nuclei number per field

UniProt Q9D1N4, sequence (Q9D1N4 whole entry): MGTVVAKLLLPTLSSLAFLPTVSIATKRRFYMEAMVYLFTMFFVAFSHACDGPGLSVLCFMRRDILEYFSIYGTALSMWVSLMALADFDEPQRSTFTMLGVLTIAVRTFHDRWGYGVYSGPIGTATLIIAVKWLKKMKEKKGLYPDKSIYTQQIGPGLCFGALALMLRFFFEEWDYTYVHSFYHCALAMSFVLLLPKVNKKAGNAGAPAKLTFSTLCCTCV

fold increase of PLA signal mean fluorescent intensity, ERKi against DMSO control: 2.9 fold
Substance: CaMKII (from UniProt Q6PHZ2 1-499) (natural protein)
